# Assay results from paper PMC9302814.
# Target: SARS-CoV-2 Spike
# Experiment: SPR
Substance,Kd [nM],koff [s⁻¹]
S2P6,9.7,0.0033
CC40.8,1.6,0.00038
CV3-25,2.5,0.00061
